This is an account of results in article PMC9175631 (Journal of Virology, 2022).

Assay [1] has as its target T1, wild-type ZIKV prM/E (ZIKV SPH2015) (Zika virus, SPH2015, UniProt A0A0U3FSM8, strain).
T1 construct: also called WT prM/E; wild-type prM/E; source: HEK-293T, transfected, cells fixed and permeabilised
Put plainly: flow cytometry on cells. Conditions: one partner purified.

Assay [2] has as its target T2, ZIKV E protein (Suriname Z1106033) (Zika virus, Suriname Z1106033, UniProt A0A0U4DG08, strain). The assay is described as follows: cell-based or functional assay.
Assay [3] concerns the target T3, ZIKV virus-like particles (Suriname Z1106033) (Zika virus, Suriname Z1106033, UniProt A0A0U4DG08, strain).
T3 construct: also called ZIKV-VLP; VLP; source: bought: The Native Antigen Company
Put plainly: BLI; Octet HTX; MAb 0.1 to 0.3 μg/mL amine-coupled to AR2G biosensor; ZIKV-VLP 0.1 to 1.0 μg/mL or ZIKV E protein 0.2 to 2 μg/mL in 1x kinetic buffer; association 900 s, dissociation 1,200 s; Langmuir 1:1 model; average of two runs. As to conditions: both partners purified. (In general: In BLI a coated tip is dipped into the sample, and binding shifts an interference pattern.)

Assay [4] deals with T2, ZIKV E protein (Suriname Z1106033). Described as above. As to conditions: both partners purified.
Assay [5] has the same target. The assay is described as follows: BLI; Octet HTX; 2 μg/mL MAb captured on protein G biosensor in 0.1% BSA-PBST; 3 μg/mL ZIKV E protein associated 600 s, dissociated 900 s. As to conditions: both partners purified.
Assay [6] addresses T3, ZIKV virus-like particles (Suriname …). The assay is described as follows: Luminex bead assay; VLP conjugated to MagPlex beads (EDC/NHS); 10,000 beads/mL with 10 μg/mL to 0.0002 ng/mL MAb, 90 min, room temperature, 1% BSA in D-PBS; detected with phycoerythrin-labeled anti-rabbit IgG. Conditions: both partners purified.
The target of assay [7] is ZIKV prM/E (ZIKV SPH2015), E E162A (Zika virus (ZIKV SPH2015)). The assay is described as follows: flow cytometry on cells.
For assay [8], the target named is ZIKV prM/E (ZIKV SPH2015), E G100A (Zika virus (ZIKV SPH2015)). The assay is described as follows: flow cytometry on cells.
Assay [9] concerns the target ZIKV prM/E (ZIKV SPH2015), E G182A (Zika virus (ZIKV SPH2015)). Put plainly: flow cytometry on cells.
For assay [10], the target named is ZIKV prM/E (ZIKV SPH2015), E G302A (Zika virus (ZIKV SPH2015)). Put plainly: flow cytometry on cells. (In general: In flow cytometry, cells or beads pass a laser one at a time.)
Assay [11] concerns the target ZIKV prM/E (ZIKV SPH2015), E G337A (Zika virus (ZIKV SPH2015)). The assay is described as follows: flow cytometry on cells.
Assay [12] deals with ZIKV prM/E (ZIKV SPH2015), E H398A (Zika virus (ZIKV SPH2015)). The assay is described as follows: flow cytometry on cells.
Assay [13] addresses ZIKV prM/E (ZIKV SPH2015), E H399A (Zika virus (ZIKV SPH2015)). The assay is described as follows: flow cytometry on cells.
Assay [14] concerns the target ZIKV prM/E (ZIKV SPH2015), E I317A (Zika virus (ZIKV SPH2015)). Put plainly: flow cytometry on cells.
Assay [15] deals with ZIKV prM/E (ZIKV SPH2015), E K301A (Zika virus (ZIKV SPH2015)). Put plainly: flow cytometry on cells.
The target in assay [16] is ZIKV prM/E (ZIKV SPH2015), E L107A (Zika virus (ZIKV SPH2015)). The assay is described as follows: flow cytometry on cells.
The target of assay [17] is ZIKV prM/E (ZIKV SPH2015), E S368A (Zika virus (ZIKV SPH2015)). The assay is described as follows: flow cytometry on cells.
In assay [18] the target is ZIKV prM/E (ZIKV SPH2015), E T309A (Zika virus (ZIKV SPH2015)). Put plainly: flow cytometry on cells.
The target in assay [19] is ZIKV prM/E (ZIKV SPH2015), E T335A (Zika virus (ZIKV SPH2015)). Put plainly: flow cytometry on cells.
In assay [20] the target is ZIKV prM/E (ZIKV SPH2015), E T369A (Zika virus (ZIKV SPH2015)). Put plainly: flow cytometry on cells.
In assay [21] the target is ZIKV prM/E (ZIKV SPH2015), E T397A (Zika virus (ZIKV SPH2015)). The assay is described as follows: flow cytometry on cells.
Assay [22] deals with ZIKV prM/E (ZIKV SPH2015), prM D57A (Zika virus (ZIKV SPH2015)). The assay is described as follows: flow cytometry on cells.
For assay [23], the target named is ZIKV prM/E (ZIKV SPH2015), prM E58A (Zika virus (ZIKV SPH2015)). The assay is described as follows: flow cytometry on cells.
Assay [24] addresses ZIKV prM/E (ZIKV SPH2015), prM G59A (Zika virus (ZIKV SPH2015)). Put plainly: flow cytometry on cells.
The target in assay [25] is ZIKV prM/E (ZIKV SPH2015), prM V60A (Zika virus (ZIKV SPH2015)). Put plainly: flow cytometry on cells.

Positions count from the first letter of the chain named.

B1: anti-ZIKV MAb 289-3 (antibody, V domains shown)
VH: QEELEESGGDLVKPGASLTLTCKASGFSFSSGAYICWVRQAPGKGPEWIACIYTGDGRTYYANWAKRRFTISSSSSTTVALEMPSLTDADTATYFCARAIAVGAGYGVGNYFTLWGPGTLVTVSS
VL: DIVMTQTPSSVSAAVGGTVTINCHASENIYGYLSWYQQKPGQPPKLLIYKASTLASGVPSRFKGSGAGTQFTLTITALECADAATYYCQSYYTSSSNADGSENAFGGGTEVVVE
What is called Kd is the concentration at which binding is half-saturated. The low end stands for a tighter complex, the high end for a looser complex. As a reminder, the koff is a measure of how fast the partners let go of each other. A high value points to fast dissociation. As usually defined, the kon is a measure of how fast the partners come together. With B1, the binding result in assay [1] is recorded as “binds”. The molecule further yielded an other in assay [2] of 7.8 ng/mL. In assay [3], this molecule showed a Kd of 0.3 nM, a koff of 4.58e-05 s⁻¹ and a kon of 155000 M⁻¹ s⁻¹. In [4], this molecule displayed a Kd of 0.29 nM, a koff of 3.68e-05 s⁻¹ and a kon of 129000 M⁻¹ s⁻¹.

B2: anti-ZIKV MAb 306-2 (antibody, V domains shown)
VH: QSLEESGGDLVKPGASLTLTCTASGFDFSDRYYMCWVRQAPGKGLEWIGCIYVGSGDTYYASWAKGRFTISRTSSTTVTLQMTRLTAADTATYFCARHPGTYFTLWGPGTLVTVSS
VL: DVVMTQTPSSVSAAVGGTVTINCQASQNIVNNLAWYQQRPGQPPKLLIYDTSTLASGVPSRFKGSGSGTEFTLTISDLECADAATYYCQTYYYYNKIINGFGGGTEVVVK
Regarding B2, the binding result in [1] is “binds”. In assay [2], this molecule came in with an other of 10500 ng/mL. In assay [3], this molecule showed a Kd of 0.4 nM, a koff of 6.34e-05 s⁻¹ and a kon of 160000 M⁻¹ s⁻¹. In assay [4], this molecule had a Kd of 0.17 nM, a koff of 2.04e-05 s⁻¹ and a kon of 117000 M⁻¹ s⁻¹.

B3: framework region (FWR) amino acid reverted anti-ZIKV MAb 306-2 (antibody, V domains shown)
VH: B2 VH with G49A, R72K, R84S
VL: B2 VL with S10P, A34S, R39K, T53N, G66R
notes: rabbit IgG; 3 FWRH and 5 FWRL residues reverted to the germ line; also called allele reverted MAb 306-2; MAb 306-2 with amino acid reverted to allele
Take B3: the binding result in [5] and in assay [6] was “binds” each time.

B4: anti-ZIKV MAb 242-3 (antibody, V domains shown)
VH: QAQLEESGGDLVKPEGSLTLTCTASGFSFTDRHYMCWIRQAPGKGLEWIACVYPGSSGSTYYASWARGRFTISKTSSTTVTLRMTSLTAADTATYFCARSSYPDSSGYSYGMDLWGPGTLVTVSS
VL: DIVMTQTPASVEAAVGGTVTIKCQASQNINSNLAWYQQKPGQRPKFLMYLTSKLASGVPSRFRGSGSGTQFTLTISDLECADAATYYCQTYYDISNYGYAFGGGTEVVVK
notes: recombinant rabbit IgG; 99% amino acid identity with 270-12
Consider B4, for which the antibody binding reactivity (% WT) in assay [7] was determined as 79.6 % WT; in assay [8], 70.3 % WT; in assay [9], 85.6 % WT; in assay [10], 68.3 % WT; in [11] it was 48.3 % WT; in assay [12], 77.2 % WT. In addition, the antibody binding reactivity (% WT) in assay [13] is 127 % WT; in assay [14], 112 % WT; in [15] it was 78.7 % WT; in [16], 122 % WT; in assay [17], 89.1 % WT; in [18], 104 % WT. In addition, the antibody binding reactivity (% WT) in [19] was found to be 36.2 % WT; in assay [20], 34.5 % WT; in [21], 111 % WT; in [22], 91.9 % WT; in assay [23], 96.8 % WT; in [24] it was 94.9 % WT. Moreover, the antibody binding reactivity (% WT) in assay [25] came out at 97.2 % WT. In [1], the binding result is “binds”. Besides, the other in assay [2] turned out to be 42.8 ng/mL. Besides, the figures for the Kd in assay [3] and in [4] were 0.24 nM and 1.22 nM, respectively. Also, the dissociation rate constant (koff) in assay [3] worked out at 4.93e-05 s⁻¹; in assay [4], 8.16e-05 s⁻¹. The kon in assay [3] stood at 202000 M⁻¹ s⁻¹; in [4] it was 67100 M⁻¹ s⁻¹.

B5: anti-ZIKV MAb 270-12 (antibody, V domains shown)
VH: B4 VH with I38V
VL: B4 VL with N28D
notes: source: 293-6E cells, cotransfected, purified (MabSelect SuRe protein A)
As for B5, the binding result in assay [1] is reported as “binds”. In addition, the “MNT titer, IC50 (microneutralization of ZIKV PRVABC59 on Vero cells)” value in assay [2] worked out at 0.0372 µg/mL. In assay [3], this molecule returned a Kd of 0.31 nM, a koff of 4.27e-05 s⁻¹ and an on-rate (kon) of 140000 M⁻¹ s⁻¹. In assay [4], this molecule came in with a Kd of 1.04 nM, a koff of 9.8e-05 s⁻¹ and a kon of 94500 M⁻¹ s⁻¹.

B6: anti-ZIKV MAb 11-3 (antibody, V domains shown)
VH: QEQLVESGGGLVQPEGSLTITCTGSGFSFSSRFYMCWVRQAPGKGLEWIACIYGGSSGSTYYASWAKGRFTISKTSSTTVTLQISSLTAADTATYFCARGGSTAAAGFNLWGPGTLLTVSS
VL: DVVMTQTPASVSATVGGTVTIKCQASEDIYNLLAWYQQKPGQPPKLLIYYASTLASGVPSRFKGSGSGTEFTLTISDLECADAATYYCQCNDYGGTYVPNAFGGGTEVVVK
notes: recombinant rabbit IgG
In assay [3], B6 had a Kd of 0.57 nM, a koff of 7.13e-05 s⁻¹ and a kon of 125000 M⁻¹ s⁻¹. In assay [4], this molecule displayed a Kd of 1.53 nM, a koff of 0.000137 s⁻¹ and a kon of 89800 M⁻¹ s⁻¹.

B7: framework region (FWR) amino acid reverted anti-ZIKV MAb 102-1 (antibody, V domains shown)
VH: QSLEESGGDLVKPGASLTLTCTASGFSFNSNYWMCWVRQAPGKGLEWIACVFGGIHVTYYASWAKGRFTISKTSSTTVTLQMTSLTAADTATYFCIISTGGSHRFNLWGPGTLVTVSS
VL: DVVMTQTPSPVSAAVGGTVTINCQASESIYTYLSWYQQKPGQPPKLLIYRASTLESGVPSRFKGSGSGTQFTLTISDLECADAATYYCQATDVGGSGRGAFGGGTEVVVE
notes: rabbit IgG; 9 FWRH and 9 FWRL residues reverted to the germ line
Consider B7, for which the binding result in assay [5] and in assay [6] was “binds” in each case.
